Assay [1] has as its target T1, human CD9, full-length, expressed on cells (human, UniProt P21926 2-228).
T1 construct: also called Tetraspanin-29
T1 sequence: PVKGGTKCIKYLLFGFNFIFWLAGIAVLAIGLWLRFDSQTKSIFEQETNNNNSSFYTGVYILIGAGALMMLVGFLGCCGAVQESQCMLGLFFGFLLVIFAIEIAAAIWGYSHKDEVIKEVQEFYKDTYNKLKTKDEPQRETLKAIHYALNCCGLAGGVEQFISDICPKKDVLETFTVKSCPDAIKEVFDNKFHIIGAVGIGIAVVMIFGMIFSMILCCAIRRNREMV
As to the kind of experiment: binding to cells expressing full-length CD9 (selection; method not described).

In assay [2] the target is T2, CD137 peptide P1 (CRD1)-human Fc fusion protein (human, UniProt Q07011 25-68).
T2 construct: Made in Expi293F cells and used as conditioned medium, captured on anti-hIgG Fc biosensors; not shown: human Fc tag at the C-terminus
T2 chain: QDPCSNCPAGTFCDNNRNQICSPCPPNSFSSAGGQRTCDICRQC
The experiment in a line: BLI (Octet RED384), CD137 CRD peptide-Fc on AHC biosensors, Fab-Y at 10 µg/mL; CRD inferred from the peptide binding profile. The procedure: DNA sequences coding for each peptide (as shown in Table 7) were ordered from Twist Bioscience in a mammalian expression vector with a human Fc tag at the C-terminus. Each plasmid was used to transfect Expi293F™ cells (Gibcon™) to generate the different peptide-human Fc fusion proteins. For transfections, 850 μl of Expi293F™ cells ([…]) were plated in 48-well blocks and transfected with 3 μg of DNA using the ExpiFectamine™ 293 Transfection Kit (ThermoFisher) following the manufacturer's instructions. Cells were incubated in a 37° C., 5% CO₂ environment with shaking at 225 rpm. After 6 days, cells were pelleted (1000×g, 10 min) and the conditioned medias containing each of the peptides were harvested, quantitated and diluted to 1.7 μg/mL in Expi293™ Expression Medium (ThermoFisher). The conditioned medias were used for binding assessment to our panel of antibodies using the Octet® RED384 System (FortéBio) at room temperature with anti-hIgG Fc Capture (AHC) Biosensors (FortéBio). Firstly, an array of 8 sensors was dipped in kinetics buffer (PBS, 0.1% BSA, 0.02% Tween 20) for 180 seconds to provide a baseline signal. […]

B1: anti-CD9 Fab-Y 7272 (Fab, V domains shown)
VH: QSLEESGGRLVTPGTPLTLTCTVSGFSLSSYAMGWVRQAPGKGLEWIGAIGSITATGYARWAKGRFSISKTSTTVDLKMTSPTTEDTATYFCAREIYVGSAYAFDIWGPGTLVTVSS
VL: AYDMTQTPASVEVAVGDTVTIKCQASQSISNYLAWYQQKPGQPPKLLIYLASTLASGVPSRFKGSGSGTEFTLTISDLECADAATYYCQQGYIDNVNKGFGGGTEVVVK
notes: Tested as Fab-Y: a Fab whose CH1 is joined by a peptide linker to the GCN4 peptide (clone 7P14P); also called VR7272
With B1, in assay [1], the binding result is “binds”.

B2: anti-CD137 Fab-Y 8475 (Fab, V domains shown)
VH: QSVEESGGRLVTPGTPLTLTCTVSGFSLSTYAMSWVRQAPGKGLEWIGAIWSGGTTDYTSWAKGRFTISKASTTVDLKITSPTTEDTATYFCVRMAVIFNAYTFDSWGPGTLVTVSS
VL: AYDMTQTPSSVSAAVGGTVTIKCQASQNIYSYLAWYQQKPGQRPKLLIYGASTLASGVPSRFKGSGSGTDFTLTISDLECDDAATYYCQQGHSSGNVGNNVFGGGTEVVVK
notes: Tested as Fab-Y: a Fab whose CH1 is joined by a peptide linker to the GCN4 peptide (clone 7P14P); also called VR8475
Turning to B2, the binding result in assay [2] is “binds”.

For the origin of these results see patent US20230151108A1 (UCB, published 2023).
